As usually defined, the Kd is the concentration at which binding is half-saturated. High values mean a looser complex, low ones a tighter complex.

Sequences and labels used below:
B1: S4B3VH-h2+L1C9VK-mIgG2a (antibody, V domains shown)
VH: QVQLVQSGAEVKKPGSSVKVSCKASGYIFNSYSIHWVRQAPGQGLEWIGAIYPGNGDTSNSQRFKGKATITADKSASTAYMELSSLRSEDTAVYYCARDGYDDSYGLDYWGQGTTVTVSS
VL: DIQLTQSPSTLSASVGDRVTITCRASQNIGGWLAWYQQKPGKAPNLLIYQASTLESGVPSRFSGSGSGTEFTLTISSLQAEDFATYHCQQYSGFPWTFGQGTKVEIKR
B2: S4B3VH-h1+S4B3VK-h1-mIgG2a (antibody, V domains shown)
VH: QVQLVQSGAEVKKPGSSVKVSCKASGYIFNSYSIHWVRQAPGQGLEWIGAIYPGNGDTSNSQRFKGRVTITADKSTSTAYMELSSLRSEDTAVYYCARDGYDDSYGLDYWGQGTTVTVSS
VL: DIVMTQSPDSLAVSLGERATINCKASQNVGTNVAWYQQKPGQPPKALIYSASYRYSGVPDRFSGSGSGTDFTLTISSLQAEDVAVYFCQQYNSYPLTFGQGTKLEIKR
B3: S4B3VH-h2+S4B3VK-h1-mIgG2a (antibody, V domains shown)
VH: QVQLVQSGAEVKKPGSSVKVSCKASGYIFNSYSIHWVRQAPGQGLEWIGAIYPGNGDTSNSQRFKGKATITADKSASTAYMELSSLRSEDTAVYYCARDGYDDSYGLDYWGQGTTVTVSS
VL: DIVMTQSPDSLAVSLGERATINCKASQNVGTNVAWYQQKPGQPPKALIYSASYRYSGVPDRFSGSGSGTDFTLTISSLQAEDVAVYFCQQYNSYPLTFGQGTKLEIKR
B4: S4B3VH-h2+L1B2VK-mIgG2a (antibody, V domains shown)
VH: QVQLVQSGAEVKKPGSSVKVSCKASGYIFNSYSIHWVRQAPGQGLEWIGAIYPGNGDTSNSQRFKGKATITADKSASTAYMELSSLRSEDTAVYYCARDGYDDSYGLDYWGQGTTVTVSS
VL: DIQMTQSPSSLSASVGDRVTITCRASQNIHNYLDWYQQKPGKAPKLLIYSASSRETGVPSSFSGSGSGTDFTLTISSLQPEDFATYYCQQFQQIPWTFGQGTKVEIKR
B5: S4B3VH-h1+L1B2VK-mIgG2a (antibody, V domains shown)
VH: QVQLVQSGAEVKKPGSSVKVSCKASGYIFNSYSIHWVRQAPGQGLEWIGAIYPGNGDTSNSQRFKGRVTITADKSTSTAYMELSSLRSEDTAVYYCARDGYDDSYGLDYWGQGTTVTVSS
VL: DIQMTQSPSSLSASVGDRVTITCRASQNIHNYLDWYQQKPGKAPKLLIYSASSRETGVPSSFSGSGSGTDFTLTISSLQPEDFATYYCQQFQQIPWTFGQGTKVEIKR
B6: S4B3VH-h1+L1C9VK-mIgG2a (antibody, V domains shown)
VH: QVQLVQSGAEVKKPGSSVKVSCKASGYIFNSYSIHWVRQAPGQGLEWIGAIYPGNGDTSNSQRFKGRVTITADKSTSTAYMELSSLRSEDTAVYYCARDGYDDSYGLDYWGQGTTVTVSS
VL: DIQLTQSPSTLSASVGDRVTITCRASQNIGGWLAWYQQKPGKAPNLLIYQASTLESGVPSRFSGSGSGTEFTLTISSLQAEDFATYHCQQYSGFPWTFGQGTKVEIKR

The experiment has as its target Cov-S-His (SARS-CoV-2). Kind of experiment: SPR, Biacore T200, antibody captured by anti-mouse Fc, Cov-S-His as analyte.
The molecule B1 showed a Kd of 5.76 nM.
B2 gave a Kd of 14.5 nM.
The figure for B3 is 23.9 nM; for B4 it is 3.04 nM.
In turn, B5 returned a Kd of 2.86 nM.
Consider B6, for which the dissociation constant Kd is 5 nM.
